Assay results taken from patent publication US20030186915A1, “Regulatory polynucleotides and uses thereof” (priority 2002, published 2003).

Key:
SOST regulatory region = assay: Transactivation of SOST reporter constructs by co-transfected expression plasmids in SAOS cells; assay type: cell-based, human; conditions: factor overexpressed, 48 hrs after transfection
Experimental: To determine whether transfected Cbfa1 could drive further increases in the transcriptional activity of the SOST promoter, the Cbfa1 gene was recovered from an SAOS cDNA library and inserted it into a mammalian expression vector.
To test the effects of the two proteins Cbaf1 and MyoD on transactivitation of the 1.8 kb SOST regulatory region, the following tests were performed. SAOS cells were transfected with 500 ng of either the EcoRV fragment (nucleotides 1673 to 1814 of SEQ ID NO: 1) or 1.8 kb SOST regulatory region (nucleotides 1 to 1841 of SEQ ID NO:1) and the indicated combinations of expression plasmids for MyoD (150 ng) or Cbfa1 (30 ng, 300 ng). pBluescript (Stratagene) was used as needed to bring the DNA total to 1 μg per well, and SEAP (20 ng) was used to normalize for transfection efficiency. Cells were harvested 48 hrs after transfection. Both the SOST-luc and the EcoRV fragment were activated by Cbaf1 and MyoD.

SAOS cells = assay: Luciferase reporter assay of SOST regulatory region constructs, transient transfection; assay type: cell-based, human; conditions: deletion constructs in pGL2-Basic

Row | Molecule | activity of the 1.8 kb SOST regulatory region reporter (SOST-luc) (SOST regulatory region) | activity of the EcoRV fragment reporter (SOST regulatory region) | activity of the 1.8 kb SOST regulatory region reporter (SOST-luc) (SOST regulatory region; listed as Cbaf1) | activity of the EcoRV fragment reporter (SOST regulatory region; listed as Cbaf1) | increase in luciferase activity over the 1.8 kb SOST regulatory region (SAOS cells)
1 | Cbfa1: transcription factor; gene recovered from an SAOS cDNA library, overexpressed from a mammalian expression vector (protein) MASNSLFSTVTPCQQNFFWDPSTSRRFSPPSSSLQPGKMSDVSPVVAAQQQQQQQQQQQQQQQQQQQQQQQEAAAAAAAAAAAAAAAAAVPRLRPPHDNRTMVEIIADHPAELVRTDSPNFLCSVLPSHWRCNKTLPVAFKVVALGEVPDGTVVTVMAGNDENYSAELRNASAVMKNQVARFNDLRFVGRSGRGKSFTLTITVFTNPPQVATYHRAIKVTVDGPREPRRHRQKLDDSKPSLFSDRLSDLGRIPHPSMRVGVPPQNPRPSLNSAPSPFNPQGQSQITDPRQAQSSPPWSYDQSYPSYLSQMTSPSIHSTTPLSSTRGTGLPAITDVPRRISDDDTATSDFCLWPSTLSKKSQAGASELGPFSDPRQFPSISSLTESRFSNPRMHYPATFTYTPPVTSGMSLGMSATTHYHTYLPPPYPGSSQSQSGPFQTSSTPYLYYGTSSGSYQFPMVPGGDRSPSRMLPPCTTTSNGSTLLNPNLPNQNDGVDADGSHSSSPTVLNSSGRMDESVWRPY | increased activity | increased activity | activated | activated | –
2 | EcoRV to BglII fragment: about 142 nucleotides, nucleotides 1673 to 1814 of SEQ ID NO: 1, in luciferase reporter construct (nucleic acid, listed as Homo sapiens, in luciferase reporter construct) DNA: ATCTGAAAACCACAGCCGCCAGCACGTGGGAGGTGCCGGAGAGCAGGCTTGGGCCTTGCCTCACACGCCCCCTCTCTCTGGGTCACCTGGGAGTGCCAGCAGCAATTTGGAAGTTTGCTGAGCTAGAGGAGAAGTCTTTGGG | – | – | – | – | almost three fold
3 | MyoD: transcription factor overexpressed from an expression plasmid (150 ng) (protein, UniProt P15172 1-320, looked up) Myoblast determination …: MELLSPPLRDVDLTAPDGSLCSFATTDDFYDDPCFDSPDLRFFEDLDPRLMHVGALLKPEEHSHFPAAVHPAPGAREDEHVRAPSGHHQAGRCLLWACKACKRKTTNADRRKAATMRERRRLSKVNEAFETLKRCTSSNPNQRLPKVEILRNAIRYIEGLQALLRDQDAAPPGAAAAFYAPGPLPPGRGGEHYSGDSDASSPRSNCSDGMMDYSGPPSGARRRNCYEGAYYNEAPSEPRPGKSAAVSSLDCLSSIVERISTESPAAPALLLADVPSESPPRRQEAAAPSEGESSGDPTQSPDAAPQCPAGANPNPIYQVL | activated | activated | – | – | –
